From publication PMC9123286 (The Journal of Cell Biology, 2022)

T1: Get3 D57E-TEV-GFP (S. cerevisiae, UniProt Q12154 1-354, D57E)
T1 construct: Get3, cytosolic ATPase of the GET pathway, S. cerevisiae; ATPase-impaired client trap variant D57E; Captured on anti-GFP beads and eluted by TEV cleavage; the oligomeric state in the lysate was not measured; also called Get3 DE; Get3 D57E (DE); source: yeast (BY4741 background), ectopically expressed, in lysate made without detergent; not shown: TEV site-GFP, C-terminal, kept
T1 sequence (looked up): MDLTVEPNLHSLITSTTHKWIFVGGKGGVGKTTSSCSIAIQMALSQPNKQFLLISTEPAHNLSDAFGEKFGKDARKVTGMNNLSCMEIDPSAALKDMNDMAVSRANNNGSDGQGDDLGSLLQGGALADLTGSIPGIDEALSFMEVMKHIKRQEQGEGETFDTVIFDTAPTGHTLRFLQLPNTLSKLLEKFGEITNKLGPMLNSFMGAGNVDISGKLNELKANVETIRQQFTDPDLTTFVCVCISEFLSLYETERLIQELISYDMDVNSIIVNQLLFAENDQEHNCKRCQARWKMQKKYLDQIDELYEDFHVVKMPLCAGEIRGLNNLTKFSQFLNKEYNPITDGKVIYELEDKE

B1: N-terminally HA-tagged Erg1 (full length) (enzyme, S. cerevisiae, UniProt P32476 1-496, looked up)
chain: MSAVNVAPELINADNTITYDAIVIGAGVIGPCVATGLARKGKKVLIVERDWAMPDRIVGELMQPGGVRALRSLGMIQSINNIEAYPVTGYTVFFNGEQVDIPYPYKADIPKVEKLKDLVKDGNDKVLEDSTIHIKDYEDDERERGVAFVHGRFLNNLRNITAQEPNVTRVQGNCIEILKDEKNEVVGAKVDIDGRGKVEFKAHLTFICDGIFSRFRKELHPDHVPTVGSSFVGMSLFNAKNPAPMHGHVILGSDHMPILVYQISPEETRILCAYNSPKVPADIKSWMIKDVQPFIPKSLRPSFDEAVSQGKFRAMPNSYLPARQNDVTGMCVIGDALNMRHPLTGGGMTVGLHDVVLLIKKIGDLDFSDREKVLDELLDYHFERKSYDSVINVLSVALYSLFAADSDNLKALQKGCFKYFQRGGDCVNKPVEFLSGVLPKPLQLTRVFFAVAFYTIYLNMEERGFLGLPMALLEGIMILITAIRVFTPFLFGELIG
notes: Erg1, squalene monooxygenase, S. cerevisiae; also called HA–Erg1; source: yeast, expressed from the endogenous ERG1 promoter (genomic) or ectopically in Δget3 cells, in lysate; not shown: HA, N-terminal, kept

What was measured:
Get3 D57E-TEV-GFP [1] = target: T1, Get3 D57E-TEV-GFP; assay: co-IP; lysates from Δget3 cells ectopically expressing Get3 DE-TEV-GFP and HA-tagged Erg1 full length, ΔC, Δα1 or Δα2; anti-GFP MicroBeads, no detergent, TEV elution; immunoblot, signal normalised to Get3 in the eluate and to the input
Get3 D57E-TEV-GFP [2] = target: T1, Get3 D57E-TEV-GFP; assay: co-IP; lysates from cells expressing HA–Erg1 (endogenous promoter) and Get3 DE–TEV–GFP or Get3 DE FIDD–TEV–GFP; anti-GFP MicroBeads, no detergent, TEV elution; immunoblot, signal normalised to Get3 in the eluate and to the input; conditions: partners not purified

Row | Molecule | percent reduction of Get3 binding against full-length HA–Erg1 (Get3 D57E-TEV-GFP [1]) | fold enrichment against Get3 DE FIDD (Get3 D57E-TEV-GFP [2])
1 | N-terminally HA-tagged Erg1 lacking the second predicted helix of the C-terminal hairpin (Δα2) (from UniProt P32476 1-496) (enzyme) | 95% | –
2 | B1 | – | 5 fold
